# US9296786B2, “Shortened secreted polypeptides” (TWO TO BIOTECH LTD., priority 2009, dated 2016)
# B1: PRT7: novel chemokine-like secreted polypeptide from human cDNA libraries, amino acid sequence SEQ. ID. NO. 3 (protein, listed as Homo sapiens)
# chain: MGMIVPPSLAAAGGASTTPRLHALRLTSLLHQHLDLCLHPSPLPTPPSAPCLSGLVPPDSSLSVLDTLQV
# B2: PRT5: novel chemokine-like secreted polypeptide from human cDNA libraries, amino acid sequence SEQ. ID. NO. 1 (protein, listed as Homo sapiens)
# chain: MKPMERWWSRALFTTCPVGPSGCAAGLLWPRNTDARSPLHSQTLWVCSWAALAQKHRCTVTPAQPAP
# B3: PRT8: novel chemokine-like secreted polypeptide from human cDNA libraries, amino acid sequence SEQ. ID. NO. 4; full length PRT8 peptide (protein, listed as Homo sapiens)
# chain: MLVFLKLWPQCLFFALTFFLRNCIYFKDFLSHLFGSFAWNFLLSSRSMDPTSCWTAPIWRSHRPLNSAPVSESPNYPLFTWSLKPETCPGLLVSLYPA
# Experiments:
# [1] = IPGTT in mice treated with streptozotocyn (STZ), after 4-5 weeks of peptide treatment; assay type: in vivo, C57B1/6 mice; details: STZ-treated C57B1/6 male mice; PRT8 100 μg/mice; sbPRT8 20, 100 or 300 μg/mice; 4 or 5 weeks of treatment; sbPRT8 compared with PRT8
# Text: In the following experiments, a sbPRT8 peptide blocked with an acetyl moiety at the N-terminal end and an amide moiety (NH2) at the C-terminal end has been employed. The effect of sbPRT8 administration on glucose levels was examined and compared to the effect obtained with PRT8 in mice treated with streptozocin (STZ). As known in the art, STZ is a chemical compound that is particularly toxic to the insulin-producing beta cells of the pancreas in mammals. It is used in medicine for treating certain cancers of the Islets of Langerhans and used in medical research to produce an animal model for Type 1 diabetes as well as Type 2 diabetes.
# (§1) C57B1/6 males mice were purchased from Harlan Laboratories Ltd., Jerusalem, Israel, After 7 days of rest, mice were IP injected with 50 mg/kg STZ for 4 days. Five days after STZ injection, mice were treated as follows: • Group A (control)—100 μg/mice of PRT8 (control) • Group B (treatment)—20 μg/mice of sbPRT8 (treatment 1) • Group C (control)—100 μg/mice of sbPRT8 (treatment 2)
# After 5 weeks of treatment mice were starved for food only for 12 h and then were IP injected with […] of glucose solution (IPGTT). The level of glucose in mice blood was measured with Accucheck glucometer (Roche) at t=0, 15, 30, 60, 90 and 120 minutes following glucose injection.
# as §1, with “Jerusalem, Israel.” for “Jerusalem, Israel,”, “B (treatment)—100” for “B (treatment)—20”, “C (control)—300” for “C (control)—100”
# After 4 weeks of treatment mice were starved for food only for 12 h and then were IP injected with […] of glucose solution (IPGTT). The level of glucose in mice blood was measured with Accucheck glucometer (Roche) at t=0, 15, 30, 60, 90 and 120 minutes following glucose injection.
# [2] = Effect of PRT6 administration on blood serum testosterone level (R&D Systems Testosterone Immunoassay); assay type: in vivo, Balb/C mice
# Experimental: Two groups of Balb/C mice were used: • 3-4 week-old male Balb/C—Negative control for testosterone—18 mice • 7-8 week-old male Balb/C mice—18 mice
# Each group was divided into 3 sub-groups (6 mice each). Each group was injected every day for a 4 day-period with 200 μl of one of the following: • 4% DMSO in double-distilled water (DDW) • 0.5 μg/kg of PRT6 (diluted in DDW) • 5 μg/kg of PRT6 (diluted in DDW)
# After 4 days, blood serum was extracted from the mice and tested for testosterone levels. Testosterone measurement was done using the R&D Systems Testosterone Immunoassay (R&D Systems Catalog Number KGE010). This assay is based on the competitive binding technique. A monoclonal antibody specific for testosterone binds to the goat anti-mouse antibody coated onto the microplate. Following a wash to remove excess monoclonal antibody, testosterone present in the sample competes with a fixed amount of horseradish peroxidase (HRP)-labeled testosterone for sites on the monoclonal antibody. This is followed by another wash to remove excess conjugate and unbound sample. A substrate solution is added to the wells to determine the bound enzyme activity. Color development is stopped, and absorbance is read at 450 nm. The intensity of the color is inversely proportional to the concentration of testosterone in the sample.
# [3] = test system: p53; assay: Induction of p53 expression by PRT7 (data not shown)
# [4] = test system: insulin receptors; assay: Levels of insulin receptors in skeletal muscle of mice treated with PRT5; assay type: in vivo; details: data not shown
# [5] = Effect of PRT5 administration on glucose levels after glucose injection in starved mice; assay type: in vivo, C57B1 mice; details: starting 2 days and up to 4 days after injection; 2 mg/kg glucose after overnight starvation
# Experimental: The mice were divided into 4 groups. The first group was starved and checked for blood glucose levels (using an Accu-Chek® Performa device, Roche Diagnostics) one day after injection; the second group—two days after injection, the third group—three days after injection and the fourth group—four days after injection. Starvation was done overnight (the night before glucose injection), and the next day 2 mg/kg of glucose was injected to each mouse. A time course analysis of glucose levels was performed with glucose levels checked at t=0, 30, 90, 120, 150 and 240 minutes.
# [6] = Effect of PRT8 administration on glucose levels after glucose injection in starved mice; assay type: in vivo, C57B1 mice; details: 1 μg/kg or 10 μg/kg PRT8
# Experimental: All the mice were injected with PRT8 (or saline) on day 1. The first group was starved on day 2 and checked for blood glucose levels (using an Accu-Chek®Performa device, Roche Diagnostics) on day three. The second group was starved and checked for blood glucose levels three days after injection. Starvation was done overnight (the night before glucose injection), and the next day 2 mg/kg of glucose was injected to each mouse. A time course analysis of glucose levels was performed with glucose levels checked at t=0, 30, 60 and 120 minutes following glucose injection.
molecule,measurement,setting,value
"PRT8 C-ter: PRT8 fragment, sequence LLVSLYPA (listed as Homo sapiens)",reduction of blood glucose level (IPGTT),[1],no significant blood glucose reduction
"PRT6: novel chemokine-like secreted polypeptide from human cDNA libraries, amino acid sequence SEQ. ID. NO. 2 (MPPFSVGLVVVVNVVCLMLYESTTILRLYGIILFMRDLKLEVEDAKITIALALRNS; listed as Homo sapiens)",testosterone levels in blood serum,"[2]; 0.5 μg/kg or 5 μg/kg PRT6 daily for 4 days, male Balb/C",significant increase
same,effect on testosterone levels of 5 μg/kg compared with 0.5 μg/kg,"[2]; 5 μg/kg vs 0.5 μg/kg PRT6, daily for 4 days",much more pronounced
"PRT8 N-ter: PRT8 fragment, sequence SHLFGSFAWN FLLSS (SHLFGSFAWNFLLSS; listed as Homo sapiens)",reduction of blood glucose level (IPGTT),[1],no significant blood glucose reduction
"sbPRT8: shortened C-terminal fragment of PRT8, sequence KPETCPGLLV SLYPA (KPETCPGLLVSLYPA; listed as Homo sapiens)",reduction of blood glucose level (IPGTT),[1],very significant improvement
B1,expression of p53,[3],can induce the expression of p53
B2,levels of insulin receptors in skeletal muscle,[4],capable of increasing the levels of insulin receptors
same,glucose levels compared with mice administered saline,[5],significantly lower
B3,glucose levels compared with mice administered saline,"[6]; starting 2 days after administration, 2 mg/kg glucose after overnight starvation",significantly lower
same,glucose-lowering effect three days following injection compared with two days,[6]; three days following PRT8 injection,more evident
same,reduction of blood glucose level (IPGTT),[1],significant reduction
